From the nanobody polyreactivity screen of Harvey et al. (2022)

Assay: yeast display, Sf9 membrane polyspecificity reagent, FACS + sequencing; frameworks hold sequencing errors
In short: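 Galactose-induced (36–48 hours) yeast carrying a synthetic nanobody display library were exposed to 10% biotinylated, detergent-solubilized Sf9 membrane reagent at 4 °C for 1 hour. FACS followed streptavidin microbead enrichment, using low and high (top ~1%) gates for expression (anti-HA) and reagent binding (streptavidin). Colony PCR, MiSeq 2 × 250 sequencing and CDR-length filtering followed. Labels for polyreactivity reflect the gate of origin.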

Sequence | polyreactivity (PSR sort gate)
QVQLVESGGGLVQAGGSLRLSCAASGFIFRSYDMGWYRQAPGKERELVARISSGGSTYYADSVKGRFTISRDNAKNTVYLQMNSLKPEDTAVYYCNSARPTAAYDYWGQGTQVTVSS | low polyreactivity
QVQLVESGGGLVQAGCSLRLSCAASGSTFFSNAMGWYRQAPGKFRELVAGITFSGGSTYYADSVKGRFTISRDYAKNTVFLQMNSLKPEDTAVYYCAASPPYKLVWWRRMDYWGQGTQVTVSS | low polyreactivity
QVQLVESGGGLVQAGGSLRLSCAASGLIIRRYAMGWYRQAPGKERELVAAISGSGSSTYYADSVKGRFTISRDNAKNTVYLQMNSLKPEDTAVYDCAAVVLFRRGQVIRVESDYWGQGTQVTVSS | high polyreactivity
QVQLVESGGGLVQAGGSLRLSCAASGRTFRSNTKGGYRQAPGKERELVAAISWSGTRTYYADSVKGRFTISRDNAKNSVYLQMNSLKPEDTAVYYCNAVGFDQPRYYYWGQGTQVTVSS | high polyreactivity
QVQLVESGGGLVQAGGSLRLSCAASGSTFTHYDMGWYRQAPGKERELVADISRSGGRTYYADSVKGRFTISRDNAKNTVYLQMNSLKPEDTAVYYCATEFEHINGVNQGPYIDDYSWGQGSQVTVSS | low polyreactivity
QVQLVESGGGLVQAGGSLRLSCAASGSIFRGNGMGWYRQAPGKERELVAAISRSGGRTYYADSVKGRFTISRDNAKNTVYLQMNSLKPEDTAVYYCNAARTYQYDYWGQGTQVTVSS | high polyreactivity
QVQLVESGGGLVQAGGSLRLSCAASGRTLEQYAMGWYRQAPRKERELVAAINKSGARTYYADSVKGRFTISRDNAKNSVYLQMNSQKPEDTAVYYCNTVGPSYLFDYWGQGTQVTVSS | high polyreactivity
QVQLVESGGGLVQAGGSLRLSCAASGFIFWNYAMGWNRQAPGKERDLVAAISSGGTITKYADSVKGRFTISRDKAKNTVYLQMNSLKPEDTAVYYCNAVVRVRFRKNDYWGQGTQVTVSS | high polyreactivity
QVQLVESGGGLVQAGVSLRLSCAASGGTFLVSAKGWYRQAPGKERQMVAAISVSGGSTYYADSVKGRFTISRDNAKNTVYLQMNSLKPEDTAVYYCAATYSHPFHTYVLRFFAYYYWGQGTQVTVSS | high polyreactivity
QVQLVESGGGLVQAGGSLRLSCASSGSTFTTNALGWYRQAPGKERELVAAISRRGGSTYYADSVKGRFRISRDNAKNTVYLQMNSLKPEDTAVYYCNAVRAEYEFDYWGQGTQVTVSS | high polyreactivity
QVQLEESGGGLVQAGGSLRLSCAASGSIFVTNAMGWYRQAPVKERELVAAISSGGNTNYADSVKGRFTISRDNAKNTVYLQMNSLKPEDTAVYYCAKDPDKVDYVDMDYWGQGTQVTVSS | low polyreactivity
QVQLVESGGGLVQAGGSLRLSCAASGRTFSVYAMGWYRQAPGKERELVAGITSGGSTNYADSVKGRFTISRDNAKNTVYLQMNSLKPEDTAVYYCAAEDDSSTPEFDYWGQGTQVTVSS | low polyreactivity
QVQLVESGGGLDQAGGSLRLSCAASGSIFEPNAMVWYRQAPGKERELVAAITGGGGTNYADSVKGRFTLSRDNAKYTVYLQMNSLKPEDTAVYYCAKEVDHGDASDMDYWGQGTQVTVSS | low polyreactivity
QVQLVDSGGGLVQAGGSLRLSCAASGSIFTYNGKVWYRQAPGKEREFVAAITWTGGSTYADSVKGRFTISSDNSNNTVYLQMNSLKREDTAVYYCAAVRRISWYTPVNTRRYYYWGQGTQVTVSS | high polyreactivity
QVQLVESGGGLVQAGGSLRLSCAASGRIFKSYVMGWYRQAPGKERELVAAISKRGGRTYYADSVKGRFTISRDNAKNTVYLQMNSLKPEDTAVYYCNATYPVGDFDYWGQGTQVTVSS | high polyreactivity
QGQLVESGGGLVQAGGSLRLSCAASGSTFDYYVMGWYRQAPRKERELVAAISSGDSTNYADSVKGRFTISRDNAKNTVYLQMNSLKPEDTAVSYCAAEYTVHYDYWGQGTQVTVSS | low polyreactivity
QVQLVESGGGLVHAGGSLLLSCAASGSTLRPNAMGWYRKAPGKERELVDAISSGGSTYYADSVKGRFTISRDNAKYSVYLQMNSLKPEDTAVYSCAAASERSGYYYWGQGTQVTVSS | high polyreactivity
QVQLVESGGCLVQAGGSLRLSCAASGRTFNYKAMGWYRQAPGKERELVAAINYSGDSTYYADSVKGRFTISRDNAKNTVYLQMNSLQPEDTAVYYCNADDYWYYYRYGYWGQGTQVTVSS | low polyreactivity
QVQLVESGGGLVQAGGSLRLSCAASGYTFGINAMGWYRQAPGKERELVAAITTGGSTNYADSVKGRFTISRDNAKNSVYLQMNSLKPEDTAVYYCNASWDVWNANYWYPGAYYYWGQGTQVTVSS | low polyreactivity
QVQLVESGGGLVQAGGSLRLSCAASGSTFGRNAMGWYRQAPGKERELVAGITRRGGSTYYADSVKGRFTISRDNAKNTVYLQMNSLKPEDTAVYYCNTRGQSSSGIYDYWGQGTQVTVSS | high polyreactivity
QVQLVESGGGLVQAGGSLRLSCAASGRIFSYNAMGWYRQAPGKERELVASISYSGTSTYYADSVKGRFTISRDNAKKTVYLQMNSLKPEDTAVYYCAALSRRRFGYWGQGTQVTVSS | high polyreactivity
QVQLVESGGGLVQAGGSLRLSCAASGRTFAIYTMVWSRQAPGKERELVATISGSAGNTYYADSVKGRFTISRDNAKNTVYLQMNSLKPEDTAVYNCAARQRKARQIVLLDYWGQGTQVTVSS | high polyreactivity

Sequence | polyreactivity (PSR sort gate)
QVQLVESGGGLVQAGGSLRLSCAASGRIFGYYTMGSYRQAPGKEMELVATINWSGGSTYYADSVKGRFTISRDNAKNTVYLQMNSLKPEDTAVYYCADRPALWGRYRGYDYWGQGTQVTVSS | high polyreactivity
QVQLLESGGGLVQAGGSLRLSCAASGSIFGGNARGWSRQAPGKERELVAAITYSGGSTYYADSVKGRFTISRDNAKNTVYLQMNSLKPEDTAVYYCNADGVVTWYDYWGQGTQVTVSS | low polyreactivity
QVQLVETGGGLVQAGGSLRLSCAASGFTYRRYAMGWYRQAPGKERELVAAINWNGDSTYYADSVKGRFTISRDNAKNTVYLQMNSLKPEDTAVYYCNAGWYGGRYSKFDYWGQGTQVTVSS | high polyreactivity
QVQLVESRGALVQAGGSLRLSCAASGLILWVNAMGWNRQAPGKERELVAAISWSSGSTYYADSVKGRFTISRDNAKNTVYLQMNSLKPEASAVYYCAASVRRTGSICHYYYSGQGTQVTVSS | high polyreactivity
QVQLVESGGGLVQAGGSLRLSCAASGRIFNYYAMGWYRQAPGKERELVAAINWSGVRTYYADSVKGRFTISRDNAKNTVYLQMNSLKPEDTEVYYCARDAGAAYGYYSWGQGTQVTVSS | high polyreactivity
QVLLVESGGGLVQAGGILRLSCAASGRILPFNAMGWYRQAPGKAREFVAANSRVSGRTYYADSVKGRFTISRDNAKNTVYLQMNSLKPEDTAVYYCATDTYSYGYEYWGQGTHVTVSS | high polyreactivity
QVQLVESGGGLVQAGGSLRLSCAASGLTFEVYAMGWYRQAPGKERELVAAISSGGGSTYYADSVKGRFTISRDNAKNTVYLQMNSLKPEDTAVYYCNAVAKLYYWRYDYWGQGTQVTVSS | low polyreactivity
QVQLEESGGGLVQAGGSLRLSCAGSGNIFPSYALGWYRQAPGKERELVAAITYSAVSTYYADSVKGRFTISRDNAKNTVYLQMNSLKPEDTAVYYCAKETTEVPGVGSQEMDFWGQGTQVTVSS | low polyreactivity
QVQPQERGGGPVQACGSLRLSCAARGNILDADILGWYRLVPGKEGELVASITDGGSTNYAESVKGRFTLSRDNAINTVYHHMNSLKPEDTAVYYCAANARSHAEHDYWGQGTQVTVSS | low polyreactivity
QVQLEESGGGLVQAGGSLRLSCAASRSTLDGYAMGWYRQAPGKERELVDAITFSGGITYYADSVKVRFTISRDNAKNTVYLQMNILKPEDTAVYYCAADISTWTTWSGTEYDYLGQGTQVTVSS | low polyreactivity
QVQLVESGAGLVQAGGSLRLSCAASGSIFRKYGMGLYRQAPGKDRELVATITSSGGSTYYADSVKGRFRISRDNAKNTVYVQMNSLIPEDTAVYYCAARWTYSFHWFSRYDYWGPGTQVTVSS | high polyreactivity
QVKLQESGGGLVQAGGSLRLSCAASGYIFLHYYMGWYRQAPGKEREFVAGITSGTNTNYADSVKGRFTIRDNAKNTVYLQMNSLKPEDTAVCYCAVTYPYWGDYTYWGQGTQVTVSS | low polyreactivity
QVQLVESGGGLVQAGGSLRLSCAASGRIFSGYAMGWYRQAPGKERELVAAITSGGSTNYADSVKGRFTISRDNAKNTVYLQMNSLKPVDTAVYYCAKYYFQYKHDYWGQGTQVTVTS | low polyreactivity
QVQLVESGGGLVQAGGSLRLSCAASGFIFNYYTMGWYRQAPGKERELVAVITGGGGSTYYADSVKGRFTISRDNAKNTVYLQMNSLKPEDTAVYYCAAEWFSWGQGTQITVSS | low polyreactivity
QVQLVESGGGLVQAGGSLRLSCAPSGRIVGKYVMGWDRQAPRKERELVAGICWSAGSTYYADSVKGRFTISRDNAKNTVYLQMNSLKPEDTAVYYCAAGLEGGSDYWGQGTQVTVSS | low polyreactivity
QVQLVESGGGLVQAGGSLRLRCAASGYIIKYNAMGWYRQAPGKERELVAAISSIGGRTYYADSVKGRFTISRDNAKNTVYLQMNSLKPEDTAVYYCNAVGGRYTGWRYDYWGQGPQVTVSS | high polyreactivity
QVQLVESGGALVQAGGSLRLSCAASGFIFHYYAMGWYRQAPGKERELVAAISKTGGSTYYADSVKGRFTISRDNAKNTVYLQMNSLKPEDTAVYYCAVARSAYYRGNHWGQGTQVTVSS | high polyreactivity
QVQLVESGGGLYQAGGSLRLSCAASGLIFTTNAMGWYRQAPGKEREFVAAISPSGGSTYYADSVKGRFTISRDNAKNTVYLQMNSLKPEDTAVYYCAARYSPVWHKYYYWGQGTQVTVSS | high polyreactivity
QVQLVESGGGLVQPGGSLRLSCAASGIIFGYYAMGWYRQAPGKERVLDAAISWSGGSTYYADSVKGRVTISRDNAKNTVYFQMNSLKPEDTAVYYCAAVVRRKSGNDTWRYNYWGQGTQVTVSS | high polyreactivity
QVQLVESGGGLVQAGGSLRLSCAASGRTLYGYTMGWYRQAPGQEREVVAAINAGGGSTYYADSVKGRFTSSRDNAKNTVYLQMNSLKPEDTAVYSCNARVRVRLGRNWSSYYYWGQGTQVTVSS | high polyreactivity
QVQLVDSGGGVVQAGGSLLLSCPASGLIIKVYAMGWYRQAPGKERELVAAITYSGGSTDYADSVKGRFTISRDNAKNTVFLQMISLKPEDTAVYYCNVEKVGHVNSYGYDYWGQGTQVTVSS | low polyreactivity
